Measurements: patent US20230235000A1

Target: recombinant mutant SOD1-G93A (His-tag) (human) (UniProt P00441)
Assay: cell-based or functional assay

Sequence of recombinant mutant SOD1-G93A (His-tag) (human) (P00441 whole entry, stated change not applied): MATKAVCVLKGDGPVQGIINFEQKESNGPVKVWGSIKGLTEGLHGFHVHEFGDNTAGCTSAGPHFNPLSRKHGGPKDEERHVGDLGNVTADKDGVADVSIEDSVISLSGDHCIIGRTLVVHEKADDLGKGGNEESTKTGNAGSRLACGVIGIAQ

filter trap density of pre-aggregated SOD1 G93A after 8 µM FAIM for 2.5 hr (fraction of buffer control): 0.5
Substance: recombinant human FAIM-S (His-tag) (from UniProt Q9NVQ4 1-179)
